Experimental findings from publication PMC12556802, “Rules of engagement: Determinants of chemokine receptor activation and selectivity by CCL27 and CCL28” (The Journal of Biological Chemistry, 2025) are described below.

Residue numbers refer to the chain shown, from its start. Names may count otherwise. Read-outs that look alike come from different tables or passages of the source.

Substrate in experiment [1]: T1, CC chemokine receptor 10 (CCR10) on L1.2 cells (human) (UniProt P46092)
T1 sequence: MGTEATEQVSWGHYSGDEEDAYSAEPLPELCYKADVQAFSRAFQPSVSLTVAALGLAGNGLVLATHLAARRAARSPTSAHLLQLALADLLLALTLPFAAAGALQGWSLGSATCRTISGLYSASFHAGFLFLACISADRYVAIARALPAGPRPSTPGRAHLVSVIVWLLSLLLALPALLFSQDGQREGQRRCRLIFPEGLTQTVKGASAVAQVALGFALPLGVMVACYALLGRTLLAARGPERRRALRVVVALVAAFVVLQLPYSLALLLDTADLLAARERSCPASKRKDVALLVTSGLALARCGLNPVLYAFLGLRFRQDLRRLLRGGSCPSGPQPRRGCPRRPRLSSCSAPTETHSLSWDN

Substrate in experiment [2]: T1, 
This is another data set of the same source.

Experiment [3] deals with T2, CCR10-RlucII (human, UniProt P46092 1-362).
T2 sequence (looked up): T1 sequence

Substrate in experiment [4]: T1, 
The source holds these as a separate data set.

In experiment [5] the target is T2, CCR10-RlucII. Briefly: cell-based or functional assay.

B1: F-CCL27 (ligand)
chain: FFLLPPSTACCTQLYRKPLSDKLLRKVIQVELQEADGDCHLQAFVLHLAQRSICIHPQNPSLSQWFEHQERKLHGTLPKLNFGMLRKMG
Take B1: in experiment [1], the bare filter chemotaxis of L1.2/CCR10 cells, efficacy relative to WT CCL27 is 1.1 fold; the bare filter chemotaxis of L1.2/CCR10 cells, potency relative to WT CCL27 was 10 fold; the transendothelial migration of L1.2/CCR10 cells, efficacy relative to WT CCL27 came out at 2.7 fold; the transendothelial migration of L1.2/CCR10 cells, potency relative to WT CCL27 worked out at 3 fold. Moreover, the internalization of CCR10 on L1.2/CCR10 cells (3.1-100 nM chemokine, 45 min, 37 °C), percent of receptor remaining on the surface at 3.1 nM in experiment [2] came to 30%. In the experiment with CCR10-RlucII [3], this molecule returned a β-arrestin2 recruitment to CCR10-RlucII by BRET in HEK293 cells, EC50 of the chemokine of 19 nM and a β-arrestin2 recruitment to CCR10-RlucII by BRET in HEK293 cells, Emax relative to WT-CCL27 of 1.8 fold.

B2: F1A-CCL27 (ligand)
chain: ALLPPSTACCTQLYRKPLSDKLLRKVIQVELQEADGDCHLQAFVLHLAQRSICIHPQNPSLSQWFEHQERKLHGTLPKLNFGMLRKMG
Regarding B2, in experiment [4], the migration of L1.2/CCR10 cells, dose-response (0.1 nM to 1 μM), reduction in efficacy relative to WT CCL27 amounted to 35%; the migration of L1.2/CCR10 cells, dose-response (0.1 nM to 1 μM), reduction in potency relative to WT CCL27 was found to be 10 fold; the transwell migration of L1.2/CCR10 cells at 50 nM chemokine, reduction compared to WT CCL27 is 85%.

B3: CCL27 (ligand)
chain: B2 chain with A1F
As for B3, in the experiment with CCR10-RlucII [5], the “β-arrestin2 recruitment to CCR10-RlucII by BRET in HEK293 cells, EC50 of the chemokine” value turned out to be 89 nM.

B4: NT28-CCL27 (ligand)
chain: ILPIASSCCTQLYRKPLSDKLLRKVIQVELQEADGDCHLQAFVLHLAQRSICIHPQNPSLSQWFEHQERKLHGTLPKLNFGMLRKMG
On to B4, for which, in the experiment with CCR10-RlucII [5], the “β-arrestin2 recruitment to CCR10-RlucII by BRET in HEK293 cells, efficacy relative to WT CCL27” value was found to be 1.5 fold and the “β-arrestin2 recruitment to CCR10-RlucII by BRET in HEK293 cells, potency relative to WT CCL27” value was found to be 3.5 fold.
